Results on 1 molecule are retold here after patent publication US20030108554A1 (published 2003).

Test [1] addresses T1, GIP130c (human, UniProt Q4L180 1-1128).
T1 construct: Full length; tested as GAL4 domain fusion in yeast two-hybrid
T1 sequence: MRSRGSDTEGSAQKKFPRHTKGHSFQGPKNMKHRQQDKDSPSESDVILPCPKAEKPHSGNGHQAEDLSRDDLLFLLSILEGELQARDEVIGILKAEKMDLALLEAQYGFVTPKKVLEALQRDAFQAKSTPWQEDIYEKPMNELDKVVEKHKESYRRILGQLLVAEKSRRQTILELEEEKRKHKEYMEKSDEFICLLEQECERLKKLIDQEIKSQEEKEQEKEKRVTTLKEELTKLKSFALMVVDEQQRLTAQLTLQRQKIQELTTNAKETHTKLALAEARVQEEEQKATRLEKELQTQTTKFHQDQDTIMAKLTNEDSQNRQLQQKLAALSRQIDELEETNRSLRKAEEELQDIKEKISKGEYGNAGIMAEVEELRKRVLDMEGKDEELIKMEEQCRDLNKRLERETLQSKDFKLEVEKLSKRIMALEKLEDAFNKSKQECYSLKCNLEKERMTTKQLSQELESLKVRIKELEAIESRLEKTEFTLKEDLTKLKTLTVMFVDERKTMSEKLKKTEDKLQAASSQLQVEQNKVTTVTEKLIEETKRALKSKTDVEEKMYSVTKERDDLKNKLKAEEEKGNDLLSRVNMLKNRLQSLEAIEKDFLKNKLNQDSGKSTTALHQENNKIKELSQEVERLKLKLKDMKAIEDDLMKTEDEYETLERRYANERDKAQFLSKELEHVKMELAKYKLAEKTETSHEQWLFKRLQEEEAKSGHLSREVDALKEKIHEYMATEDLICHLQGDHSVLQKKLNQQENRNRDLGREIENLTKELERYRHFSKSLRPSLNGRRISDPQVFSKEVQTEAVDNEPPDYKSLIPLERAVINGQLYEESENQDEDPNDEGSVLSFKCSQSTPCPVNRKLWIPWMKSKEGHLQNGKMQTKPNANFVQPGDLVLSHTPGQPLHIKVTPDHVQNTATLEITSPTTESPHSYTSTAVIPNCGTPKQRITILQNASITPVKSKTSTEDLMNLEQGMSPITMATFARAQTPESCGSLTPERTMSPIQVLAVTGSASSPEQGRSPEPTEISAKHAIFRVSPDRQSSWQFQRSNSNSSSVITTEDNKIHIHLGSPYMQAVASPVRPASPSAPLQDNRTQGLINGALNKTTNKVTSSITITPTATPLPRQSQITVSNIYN
Briefly: yeast two-hybrid and three-hybrid (conclusion). As to the method:
(§1) Accordingly, we have observed with a yeast three-hybrid system that GPBP expression efficiently impairs both I-20 and GIP90 aggregation, and that I-20 and GIP90 efficiently impair GPBP aggregation.
(§2) Deletion mutants were obtained using specific primers and PCR, followed by cloning of the resulting cDNAs in the pGBT9 and pGAD424 vectors. The assays were performed in SFY526 or HF7c Saccharomyces cerevisiae strains, with pGBT9 as GAL4 binding domain vector and pGAD424 as GAL4 activation domain vector, by the lift colony assay procedure. Briefly, the yeast cells were co-transformed with constructs of both binding domain and activation domain vectors, and the co-transformants were selected in medium deficient in both tryptophan and leucine. After five days of incubation at 30° C. the colonies were tested for the expression of β-galactosidase with X-Gal substrate (0.75 mg/ml). […] When the assays were performed with the HF7c strain, the interactions were assessed by the lift colony assay procedure and by growth in medium deficient in histidine, tryptophan and leucine. For yeast three-hybrid system, we used the pBRIDGE vector, which allows the conditional expression of a third protein apart from the usual GAL4 binding and activation domain-fusion proteins of the two-hybrid system. In this case, the expression of GPBP or I-20 or GIP90 was driven by Met25 promoter, active in absence of methionine. In these experiments, the transformed SFY526 cells were plated in medium deficient in tryptophan, leucine and methionine, and subjected to the colony lift assay after five days at 30° C. In the case of the strain HF7c the colonies grown in the cited plates were streaked on medium with the additional deficiency of histidine.

Test [2] addresses T2, GIP130b (human, UniProt Q4L180 1-1128).
T2 construct: Full length; tested as GAL4 domain fusion in yeast two-hybrid
T2 sequence: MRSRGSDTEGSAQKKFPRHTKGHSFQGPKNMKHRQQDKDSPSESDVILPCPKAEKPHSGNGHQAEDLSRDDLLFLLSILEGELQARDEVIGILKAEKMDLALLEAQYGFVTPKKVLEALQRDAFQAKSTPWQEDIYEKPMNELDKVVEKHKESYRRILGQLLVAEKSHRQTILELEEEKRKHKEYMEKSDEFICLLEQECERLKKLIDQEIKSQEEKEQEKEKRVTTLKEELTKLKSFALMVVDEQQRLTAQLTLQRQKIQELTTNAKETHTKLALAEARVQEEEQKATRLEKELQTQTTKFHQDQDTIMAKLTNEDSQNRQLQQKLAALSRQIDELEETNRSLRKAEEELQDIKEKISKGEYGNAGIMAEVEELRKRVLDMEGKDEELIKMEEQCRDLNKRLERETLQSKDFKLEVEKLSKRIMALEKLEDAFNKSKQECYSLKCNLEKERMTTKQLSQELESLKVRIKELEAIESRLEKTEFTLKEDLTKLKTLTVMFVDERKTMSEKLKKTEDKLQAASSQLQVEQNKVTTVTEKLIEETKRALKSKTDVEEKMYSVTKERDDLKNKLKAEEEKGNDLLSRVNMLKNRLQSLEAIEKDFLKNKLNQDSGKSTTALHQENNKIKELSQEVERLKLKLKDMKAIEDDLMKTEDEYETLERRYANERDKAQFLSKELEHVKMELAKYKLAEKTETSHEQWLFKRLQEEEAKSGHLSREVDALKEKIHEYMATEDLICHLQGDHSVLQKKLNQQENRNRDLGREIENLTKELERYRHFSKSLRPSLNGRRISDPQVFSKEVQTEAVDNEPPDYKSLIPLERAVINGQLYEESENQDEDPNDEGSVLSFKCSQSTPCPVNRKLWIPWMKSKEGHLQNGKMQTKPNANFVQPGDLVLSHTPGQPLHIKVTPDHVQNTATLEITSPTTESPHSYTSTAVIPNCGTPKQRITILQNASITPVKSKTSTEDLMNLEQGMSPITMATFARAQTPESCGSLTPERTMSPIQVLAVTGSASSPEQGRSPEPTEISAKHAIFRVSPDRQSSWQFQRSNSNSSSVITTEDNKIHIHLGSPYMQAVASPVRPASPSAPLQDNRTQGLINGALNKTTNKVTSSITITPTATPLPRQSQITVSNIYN
Put plainly: yeast two-hybrid and three-hybrid (conclusion). As to the method: as §1, §2

B1: Goodpasture antigen binding protein (GPBP) (enzyme, UniProt Q9Y5P4 1-624, looked up)
chain: MSDNQSWNSSGSEEDPETESGPPVERCGVLSKWTNYIHGWQDRWVVLKNNALSYYKSEDETEYGCRGSICLSKAVITPHDFDECRFDISVNDSVWYLRAQDPDHRQQWIDAIEQHKTESGYGSESSLRRHGSMVSLVSGASGYSATSTSSFKKGHSLREKLAEMETFRDILCRQVDTLQKYFDACADAVSKDELQRDKVVEDDEDDFPTTRSDGDFLHSTNGNKEKLFPHVTPKGINGIDFKGEAITFKATTAGILATLSHCIELMVKREDSWQKRLDKETEKKRRTEEAYKNAMTELKKKSHFGGPDYEEGPNSLINEEEFFDAVEAALDRQDKIEEQSQSEKVRLHWPTSLPSGDAFSSVGTHRFVQKPYSRSSSMSSIDLVSASDDVHRFSSQVEEMVQNHMTYSLQDVGGDANWQLVVEEGEMKVYRREVEENGIVLDPLKATHAVKGVTGHEVCNYFWNVDVRNDWETTIENFHVVETLADNAIIIYQTHKRVWPASQRDVLYLSVIRKIPALTENDPETWIVCNFSVDHDSAPLNNRCVRAKINVAMICQTLVSPPEGNQEISRDNILCKITYVANVNPGGWAPASVLRAVAKREYPKFLKRFTSYVQEKTAGKPILF
notes: Protein kinase; Fusion parts are not written as pieces
B1: the binding result in test [1] and in test [2] was “binds” throughout.
